Experimental data as given in publication PMC7458484.

Molecular target: HBV core protein Cp185 (full-length) (hepatitis B virus (Human); compared to …, UniProt Q67855 1-185)
Experiment: time-resolved SAXS (stopped flow), SEC capsid assembly; after mixing ~1 RNA per 6.5 Cp185 monomers; RNA in assembly buffer; RNA added to dimers in disassembly buffer immediately triggered capsid formation; Cp185 in 1.5 M GuHCl, 0.5 M LiCl, 50 mM HEPES pH 7.5, 2 mM DTT mixed 1:1 with assembly buffer 250 mM NaCl, 50 mM HEPES pH 7.5, 2 mM DTT; RNA 0.075 mg/mL final

B1: PS1 RNA oligo (40 nt, RNA40) (structured_RNA)
RNA: GGGUUUGUUUAAAGACUGGGAGGAGUUGGGGGAGGAGCCC
B1: binds.
